From the DeepSol protein solubility set

Experiment: soluble on expression in E. coli; label from the status in PepcDB or PDB records

**Q.** Which “soluble on expression in E. coli” value does the source give for “MTEALEQPLRRILSYWRNEIKPLLDAETGTLFKQAPIRVTLAFPNRYSVGMASLGYQVIYRMFNQEEGVACERAFLPDDVDAFERTGQALPTVESGRAAGDCELFSISVSFELDLTNIIRLIDVAGMNPLREERDETDPVVMIGGPLTSSNPYPLTPFADIIIIGDGEQIVPVVSEALRESSSREDFYDLIDGVPGVFLPARHVHEPTWATAPKELLPAYSQIVTPHSELSNMFLVEAQRGCPRPCTFCLARTMYGPNRNNQAQELLDVIPDWVEKVGLVGAALSDFPHTKFVGKTLTERGVKLGVSSIRADTVDAELAEILKAGGLRTFTVASDAPSERLRRWLKKGITTEDLLKTAQISRDLGFSGLKVYMMIGLGPENDDDITELISFTKELAGINRIALGISPFVPKRHTPHFADPFAGVQTIEKRLKRIQKELRTTAELRNVSAKWAWVESVIARGGPEVGMAAYQIYRNESIGAWKKALDEVGWQDDFEANTPSIGLPPGQYESKEVSAHAQGLAVLEHHHHHH” here?
**A.** The value was “soluble”.

**Q.** Which “soluble on expression in E. coli” value does the source give for “MTECIFCHQLKANQLLTQSQYFKVVFDIDPIQKGHLLLISKDHYTSLTQLPKEGHYDLIDLQAALVAKLEQHLPISGVTSVSNDKELMDEGTHFHLHLIPRLTNDSFWEGITINQENWDLTPFLKHL” here?
**A.** The value was “not soluble”.

**Q.** For “MTEEIAGFQTSPKAQVQAAFEEIARRSMHALSFLHPSMPVYVSDFTLFEGQWTGCVITPWMLSAVIFPGPDQLWPLRKVSEKIGLQLPYGTMTFTVGELDGVSQYLSCSLMSPLSHSMSIEEGQRLTDDCARMILSLPVTNPDVPHAGRRALLFGRRSGENA”, which “soluble on expression in E. coli” value is on record?
**A.** The value was “not soluble”.

**Q.** For “MTEHNHDSQLEINNEEELLTLFDEEGNEVLYRKVLEFYHPEFKKEYVILAEEGAQSDEDDMIELVPMINEPDESGDGGKLVPIETDEEWDMIEEVVNTEMEELEHHHHHH”, which “soluble on expression in E. coli” value is on record?
**A.** The value was “not soluble”.

**Q.** For “MTEKINIQEVLVVEGKDDTANLRRFYEVDTYETRGSAITEEDLERINRLNDLRGVIVLTDPDYNGERIRKLIMAAVPTARHAFLNRNEAVPSSKSKGRSLGVEHANFEDLQKALAHVTQQYDDESYFDIRQTDLIRLGLLMASDSRKRREYLGEKLRIGYANGKQLLKRLELFGITLAEVEEVMETYEE”, which “soluble on expression in E. coli” value is on record?
**A.** Its value is “not soluble”.

**Q.** With “MTELARLKFYATQPHSCSYLPEEQATTLFLDPSQPMDVHVYADLSEMGFRRSGDHLYRPHCQNCNACVPARIPAARFIPNRQQRRILKRNADLTVTAARPAFKEEYFELYRRYIETRHADGDMYPPSRDQFSTFLVRDLPFCWFYEFRLEGRLMAVAVCDLLPNGLSAVYTFYEPDEERRSLGRFAILWQITEALRQNLEAVYLGYWIKNCKKMNYKTQYRPIELLINQRWVTLNLEHHHHHH” as the sequence, how does the “soluble on expression in E. coli” value read?
**A.** The value was “not soluble”.

**Q.** With “MTEMIRPRVKYVIGPDGSPLTIADLPPANTRRWVIRRKAEVVAAVRGGLLSLEEACERYTLTVEEFLSWQSSISDHGLAGLRTTRIQQYRHAAALEHHHHHH” as the sequence, how does the “soluble on expression in E. coli” value read?
**A.** Its value is “soluble”.

**Q.** For “MTENVNSSGDSAIKSEDKEEVTVIQEGQAKVGFHGPVFYNPVQEFNRDLTVTVLRQFSADHQKWAEEQKQLKTEEEPPKKKNKLAINEDGKIRILDALSASGLRALRFSKEVPNVGFIMANDFSDNAVASIQENVKLNGVEDIVEAHFGDAVMTMMEHRGIDKRFHAVDLDPYGTASTFLDSAVQCVADRGILMVTCTDMAVLCGNTPEACYNKYDAVTTRMKCCHEVGLRILLRAIDSAANRYTRYIEPLVSISVDFYVRVFVRVHTGAFQAKQSGTKVGTVLVCSGCHSMEPLVLLKRGEGNQQSKYSIPTVRHSISGPGNRCIHCLLPLHQIGPIYLAPIHSKPFVTSLLERLKSTPEAERLGTHGRLQGVLTMVNEELDDVLYYEHNQMANVVKVSVPKSQSVRSAILNAGFKVSGSHCNPRAIKTNAPMHLLWDIYRQVAKDTSVDREKRLAKESAGYHILGQPITNTVNFTLHPGAIEQAKKENLVRFQCNKGKNWGPRQKAKGSVNSTKAGFQLTEHKE”, which “soluble on expression in E. coli” value is on record?
**A.** Its value is “not soluble”.

**Q.** For “MTEPKPRARRSGAAPARTRDDQVVDRRRSLLKAAVKVISKRGLTGVTINSIAAEAKCSYGVVAFHFQSKEGIIFAALDHTAAEYEAYLAQLNASQRGPAERIRHMIDTDFSRKAAGHESIALWLAFWAEAARVPSFRQRCAALRVQYNEAVAADVAELAALRGRTVEAEQVALTLNAMISGLWVENLLLPITIAEGQKRGHDASLAYLRLIFPDDF”, which “soluble on expression in E. coli” value is on record?
**A.** Its value is “not soluble”.
